US6858775B1, “Method for generating split, non-transferable genes that are able to express an active protein product” (New England Biolabs, Inc., priority 1999, dated 2005)

B1: ALSII: wild type E. coli acetolactate synthase II expressed from plasmid pALSII (protein)
chain: MNGAQWVVHALRAQGVNTVFGYPGGAIMPVYDALYDGGVEHLLCRHEQGAAMAAIGYARATGKTGVCIATSGPGATNLITGLADALLDSIPVVAITGQVSAPFIGTDAFQEVDVLGLSLACTKHSFLVQSLEELPRIMAEAFDVACSGRPGPVLVDIPKDIQLASGDLEPWFTTVENEVTFPHAEVEQARQMLAKAQKPMLYVGGGVGMAQAVPALREFLAATKMPATCTLKGLGAVEADYPYYLGMLGMHGTKAANFAVQECDLLIAVGARFDDRVTGKLNTFAPHASVIHMDIDPAEMNKLRQAHVALQGDLNALLPALQQPLNQYDWQQHCAQLRDEHSWRYDHPGDAIYAPLLLKQLSDRKPADCVVTTDVGQHQMWAAQHIAHTRPENFITSSGLGTMGFGLPAAVGAQVARPNDTVVCISGDGSFMMNVQELGTVKRKQLPLKIVLLDNQRLGMVRQWQQLFFQERYSETTLTDNPDFLMLASAFGIHGQHITRKDQVEAALDTMLNSDGPYLLHVSIDELENVWPLVPPGASNSEMLEKLS

Assays:
E. coli ER2744 [1] = experiment: Plate assay: rescue of E. coli ER2744 growth on valine or valine plus SM M9 plates; format: cell-based
Description: E. coli ER2744 strain was employed as an in vivo model system for assessing the activity of the herbicide resistant E. coli ALSII gene, genetically modified by a linker insertion between Q327 and C328. E. coli ER2744 is derived from wild type E. coli K12 that contains the active ALSI and ALSIII enzymes, but not an active ALSII. ALSI and ALSIII are two isoforms of ALS genes in E. coli, which are crucial for the synthesis of valine, isoleucine and leucine (LaRossa and Schloss, J. Biol. Chem. 259:8753-8757 (1984)). Their activity is sensitive to the valine feedback inhibition. Therefore, by saturating the growth medium with 100 μg/ml valine (Sigma, St. Louis, Mo.), ALSI and III will be inhibited and the cells will stop growing. By introducing a recombinant herbicide resistant ALSII (ALSIIm) into E. coli cells, their growth will be rescued since ALSII is resistant to valine inhibition.
Plate assays were conducted to examine the capability of ALSIIm-14 to rescue E. coli ER2744 from valine (100 μg/ml) or valine plus herbicide SM (50 μg/ml, Supelco Park, Bellefonte, Pa.) saturated M9 minimum medium plate (Sambrook et al., (1989)). The M9 medium contains 2 μg/ml Thiamin, 2 mM MgSO4, 0.1 mM CaCl2, 0.2% glucose, 50 μg/ml of kanamycin, 100 μg/ml of ampicillin and 0.3 mM IPTG. For the plating assay, 100 μl of 25 mg/ml Valine with or without 50 μl of 25 μg/ml Sulfometuron methyl (SM) was spread on M9 selection plate. To assay bacterial growth, overnight cultures were streaked on M9 plates with or without valine and/or SM. The plates were incubated at various temperatures (as indicated in FIG. 7) for 48 to 72 hrs before the pictures were taken. On the plate supplemented with valine, cells expressing either ALSII, ALSIIm or ALSIIm-14 were able to grow (FIG. 7-a). However, when both valine and SM was applied, only strains expressing herbicide-resistant ALSIIm or ALSIIm-14 were able to grow (FIG. 7-b).
The next step was to determine whether the spliced product, as the result of trans-splicing of the ALSIIm (ALSIIm(N)—INn and ALSIIm(C)—INc) fusion proteins, would render E. coli ER2744 resistant to valine and SM. The first experiment was to test the effect of co-expression of ALSIIm(N)—INn and ALSIIm(C)—INc fusion proteins on cell growth in valine saturated M9 minimum medium. In a plating assay (see Section 4.), all transformed cells grew well on M9 medium in the absence of valine (FIG. 9A-a). […] (FIG. 9A-b, 9A-c) in the presence of valine. […] (FIG. 9A-c) or lower temperatures (data not shown) from a valine plate.

E. coli ER2744 [2] = experiment: Quantitative liquid culture assay (OD600) of E. coli ER2744 in valine / SM M9 medium; format: cell-based; settings: 30° C.
Description: A quantitative liquid culture assay was performed to verify the results obtained from the plating assay. The liquid assay was performed as follows. A single colony was used to inoculate LB medium supplemented with kanamycin and ampicillin at 37° C. for 4 hours. Expression was induced by 0.3 mM IPTG and cell cultures were shifted to 30° C. for another 2 hrs. Then, 200 μL of equivalent OD600 8.0 was spun down, washed one time with M9 medium and resuspended in 200 μl M9 medium. 40 μl was aliquoted into 2 ml of appropriate culture medium and grown for 24-72 hours before its OD600 was measured. The concentration for valine is 100 μg/ml and for SM is 50 μg/ml. At 30° C., all transformed cells grew equally well in M9 minimum medium (FIG. 9B). […] To further compare the growth kinetics for trans-splicing mediated cell growth to wild type ALSII mediated cell growth, a time course study was performed (FIG. 9C).

Molecule	cell growth on M9 plate in the presence of valine at both 30° C. and 37° C. (E. coli ER2744 [1]; 100 μg/ml valine)	cell growth in valine saturated M9 liquid medium (E. coli ER2744 [2]; 100 μg/ml valine)	cell growth on M9 plate with valine and herbicide SM (E. coli ER2744 [1]; 100 μg/ml valine and 50 μg/ml SM, 30° C., 0.3 mM IPTG)	cell growth on M9 plate supplemented with valine (E. coli ER2744 [1]; 100 μg/ml valine, 30° C., 0.3 mM IPTG)	cell growth in valine M9 liquid medium containing SM (E. coli ER2744 [2]; 100 μg/ml valine, 50 μg/ml SM)	growth rate, time course study (E. coli ER2744 [2]; M9 medium with 100 μg/ml valine)
ALSIIm(N)—INn: fusion of ALSIIm N-terminal 327 residues and Ssp DnaE intein N-terminal 123 residues	did not grow	did not rescue cell growth				
B1	rescued the cells growth	allowed cells to grow	could not rescue cell growth	able to grow	no growth	fastest growth rate
